In patent US20250304936A1 (KYUNGPOOK NATIONAL UNIVERSITY INDUSTRY ACADEMIC COOPERATION …, published 2025):

Target: the molecule itself
Test: size exclusion chromatography (Superdex 200 Increase 10/300 GL); self-association of the chain: 92.1 kDa measured against 40.9 kDa calculated for the monomer
Description: (A) Molecular sieve chromatography profiling of purified GH117A α-NABH was performed using a Superdex 200 Increase 10/300 GL column equilibrated with 40 mM Tris-HCl (pH 8.0) containing 150 mM NaCl. At this time, a protein solution containing 500 μg GH117A α-NABH was injected into the column, and the column was eluted at 4° C. at a flow rate of 0.3 mL/min, and the protein elution profile was monitored by measuring absorbance at 280 nm. […]
Molecular sieve chromatography was performed using a Superdex 200 Increase 10/300 GL column (GE Healthcare) equilibrated with 40 mM tris-HCl (pH 8.0) and 150 mM NaCl. Purified GH117A α-NABH (0.5 mg/0.5 mL) was injected into the column, and molecular sieve chromatography was performed under conditions of 4° C. and a flow rate of 0.3 mL/min, and protein elution was measured at a wavelength of 280 nm. For the column, a standard curve of retention volume versus protein molecular weight was obtained using size markers such as ferritin (440 kDa), aldolase (158 kDa), ovalbumin (44 kDa), and ribonuclease A (13.7 kDa), and molecular weight of the purified GH117A α-NABH was measured using the curve.

B1: recombinant His-tagged GH117A α-neoagarobiose hydrolase (α-NABH) of Cellvibrio sp. KY-GH-1 (enzyme)
chain: MGDLPEKKLSKASLRAIERGYDQKNADWVFEFDVKPLGGDFAYQEGVIRRDPSAVIFVDGLYHVWYTKGEGETVGFGSANPEDKVFPWDKTEVWHATSSDGWDWKEQGAAIVAGAPGSYDDRAVFTPEVLAHEGRYYLVYQTVKAPYLNRTKECIALASADSPYGPWVKSPAPILTPADNGVWDGDEDNRFNCKIRGDFDSHKVHDPCLMFYQNKFYLYYKGEIMGERMNFGGREIKHGVAIADKIEGPYVKSEFNPITNSGHEVVVWHVNGGIASLLTTDGPEKNTCQWSPDGINFDIMAHIKGAPEALGLYRDPAADIQDPMAGLAWGLCHKYDSSWNWNYICRFKTRRQILDPGTFQNVAS
notes: The entry under measurements means that the chain associates with itself; also called GH117A α-NABH; GH117 A α-NABH; not shown: C-terminal 6x His tag from vector pET-30a (cloned NdeI/XhoI)
- binding result: binds
